# Results taken from the Immune Epitope Database (IEDB).
# What was measured:
# HLA-A*02:01 [1] = assay: IEDB peptide-MHC binding, purified MHC/competitive/fluorescence; ≥ and ≤ were set here for values at or beyond the usual limits of such assays
# HLA-A*02:06 = assay: IEDB peptide-MHC binding, purified MHC/competitive/radioactivity; filed as Kd, often an IC50 or EC50 that approximates it; ≥ and ≤ were set here for values at or beyond the usual limits of such assays
# HLA-A*02:02 = assay: as above
# HLA-A*02:03 = assay: as above
# HLA-B*15:01 = assay: IEDB peptide-MHC binding, purified MHC/direct/fluorescence; filed as Kd, often an IC50 or EC50 that approximates it; ≥ and ≤ were set here for values at or beyond the usual limits of such assays
# HLA-A*69:01 = assay: as above
# HLA-A*02:01 [2] = assay: as above
# HLA-A*32:01 = assay: IEDB peptide-MHC binding, purified MHC/competitive/radioactivity; filed as Kd, often an IC50 or EC50 that approximates it; ≥ and ≤ were set here for values at or beyond the usual limits of such assays
# HLA-A*26:01 = assay: as above
# HLA-B*58:01 = assay: IEDB peptide-MHC binding, purified MHC/direct/fluorescence; filed as Kd, often an IC50 or EC50 that approximates it; ≥ and ≤ were set here for values at or beyond the usual limits of such assays
# HLA-A*11:01 = assay: as above; settings: source organism: SARS-CoV1
# HLA-A*01:01 = assay: as above
# HLA-B*40:01 = assay: as above; settings: source organism: Mammarenavirus juninense
# [3] = source organism: Sudan ebolavirus
# [4] = source organism: Vaccinia virus WR
# [5] = source organism: Lymphocytic choriomeningitis virus (strain Armstrong)
# [6] = source organism: Yersinia pestis
# [7] = source organism: Escherichia coli O157:H7
# [8] = source organism: Dengue virus 2 Jamaica/1409/1983
# [9] = source organism: Dengue virus 1 Brazil/97-11/1997
# [10] = source organism: SARS coronavirus Tor2
# [11] = source organism: Human immunodeficiency virus 1
# [12] = source organism: Vaccinia virus Copenhagen
Sequence,Kd (HLA-A*02:06; [4]),Kd (HLA-A*02:02; [4]),Kd (HLA-A*02:03; [4]),also measured
TTHTSGPSV,–,–,–,IC50 (HLA-A*02:01 [1]; [3]): 17800 nM
TIDNIVTSL,2730 nM,178 nM,1040 nM,–
YSMCTGKFKV,–,–,–,Kd (HLA-A*02:06; source organism: Dengue virus 2 16681-PDK53): 54.4 nM
YCNYSKFWYL,–,–,–,Kd (HLA-A*02:06; [5]): 1060 nM; Kd (HLA-A*02:02; [5]): 1110 nM; Kd (HLA-A*02:03; [5]): 9630 nM
NMINKLYGYA,137 nM,1.57 nM,0.438 nM,–
TIEDDKIVTM,≥ 26100 nM,17000 nM,17200 nM,–
SMSQELAELL,474 nM,6.19 nM,54.5 nM,–
FMHSAAPIT,–,–,–,Kd (HLA-B*15:01; [6]): 1920 nM; Kd (HLA-A*69:01; [6]): 7660 nM; Kd (HLA-A*02:01 [2]; [6]): 216 nM
ALEKGIKDV,–,–,–,Kd (HLA-A*69:01; [7]): ≥ 20000 nM; Kd (HLA-A*02:01 [2]; [7]): 6000 nM
KLGEFYNQMM,–,–,–,IC50 (HLA-A*02:01 [1]; source organism: Influenza B virus): 2820 nM
YLFSQNYSF,–,–,–,Kd (HLA-A*32:01; [4]): 1.39 nM
PIPMSRLFM,≥ 31200 nM,3890 nM,9130 nM,–
GLFKTLTGEI,–,–,–,Kd (HLA-A*02:03; source organism: Dengue virus 4 Philippines/H241/1956): 15 nM
NYADRRWCFD,–,–,–,Kd (HLA-A*32:01; [8]): ≥ 52300 nM
SVDAMIHKT,10600 nM,5020 nM,3660 nM,–
MHNQNALVC,–,–,–,IC50 (HLA-A*02:01 [1]; [3]): ≥ 92000 nM
DIDLLFNEKL,≥ 25700 nM,11200 nM,≥ 26700 nM,–
TIGLSLVASV,–,–,–,Kd (HLA-A*02:03; [9]): 12.8 nM
VLQQNNSFI,8680 nM,100 nM,249 nM,–
ELIMKDGRKL,–,–,–,Kd (HLA-A*26:01; source organism: Dengue virus 3 Martinique/1243/1999): 12500 nM
FLFLAWIML,–,–,–,Kd (HLA-A*02:06; [10]): 36.7 nM; Kd (HLA-A*02:02; [10]): 1.81 nM; Kd (HLA-A*02:03; [10]): 37.7 nM
KTEHCDDFM,2520 nM,6500 nM,18100 nM,–
IIDLLLPST,1120 nM,15100 nM,10300 nM,–
PLTGNNTITT,≥ 69800 nM,7670 nM,≥ 29500 nM,–
PVIVPDIKL,≥ 51200 nM,≥ 41200 nM,≥ 32700 nM,–
YLLGLSAIM,–,–,–,Kd (HLA-A*02:06; [10]): 3.22 nM; Kd (HLA-A*02:02; [10]): 1.69 nM; Kd (HLA-A*02:03; [10]): 37.1 nM
SALNHTKKW,–,–,–,Kd (HLA-B*58:01; source organism: SARS-CoV1): 350 nM; Kd (HLA-A*11:01): 17100 nM

Sequence,Kd (HLA-A*02:06; [4]),Kd (HLA-A*02:02; [4]),Kd (HLA-A*02:03; [4]),also measured
EVEDYGFGIF,–,–,–,Kd (HLA-A*26:01; [9]): 1610 nM
YLSKEDRII,10500 nM,305 nM,435 nM,–
QLVCKDHLA,–,–,–,IC50 (HLA-A*02:01 [1]; [3]): 19600 nM
NSSKVSQNY,–,–,–,Kd (HLA-B*15:01; [11]): 301 nM; Kd (HLA-B*58:01; [11]): 742 nM; Kd (HLA-A*01:01; [11]): 41.2 nM
ELKHGLLDSI,1340 nM,540 nM,54.8 nM,–
LLNMRDLIVT,707 nM,1420 nM,557 nM,–
ILLKIVTQF,–,–,–,Kd (HLA-A*32:01; source organism: Dengue virus 4 Dominica/814669/1981): 412 nM
VQADMGCVV,–,–,–,Kd (HLA-A*02:06; source organism: Dengue virus 4 Singapore/8976/1995): 23.3 nM
KLYIALCKV,–,–,–,Kd (HLA-A*02:06; [12]): 97 nM; Kd (HLA-A*02:02; [12]): 15.6 nM; Kd (HLA-A*02:03; [12]): 1.41 nM
CASSSDWFY,–,–,–,Kd (HLA-A*01:01; source organism: Tobacco leaf curl Zimbabwe virus): 2.1 nM
DILQMREIIT,17700 nM,≥ 45500 nM,≥ 56200 nM,–
LIAGIILLI,–,–,–,Kd (HLA-A*02:06; [12]): 8220 nM; Kd (HLA-A*02:02; [12]): 0.173 nM; Kd (HLA-A*02:03; [12]): 38.5 nM; Kd (HLA-A*32:01; [12]): ≥ 77800 nM
FLQSPPIRE,–,–,–,IC50 (HLA-A*02:01 [1]; [3]): 38000 nM
KQRGGYAQF,–,–,–,Kd (HLA-B*15:01; source organism: Mycobacterium tuberculosis variant bovis BCG str. Pasteur 1173P2): 323 nM
SLALKNSQA,19000 nM,662 nM,459 nM,–
FISIYSRPKI,396 nM,22.8 nM,102 nM,–
DEDHAHWTEA,–,–,–,Kd (HLA-A*32:01; [9]): 390 nM
ELTGYGTVTM,–,–,–,Kd (HLA-A*26:01; [8]): 8470 nM
GLENGLNYI,–,–,–,Kd (HLA-A*02:01 [2]; source organism: Homo sapiens): 825 nM
SQSTIPETI,–,–,–,Kd (HLA-A*32:01; [8]): ≥ 24100 nM
SVVETLEQM,–,–,–,Kd (HLA-A*26:01; [9]): 138 nM
IIGEPIIVA,1350 nM,2320 nM,4780 nM,–
MVDVSMMSM,101 nM,559 nM,1160 nM,–
SIDHCSSFI,199 nM,631 nM,12.9 nM,–
STTRGALIF,–,–,–,Kd (HLA-A*32:01; [4]): 296 nM
QEHDCLQIV,–,–,–,Kd (HLA-B*40:01): 1470 nM
